The record followed here is patent publication US20150125444A1 (AstraZeneca / MedImmune, published 2015).

A word on the Kd: it is the free concentration of one partner at which half of the binding sites on the other are occupied at equilibrium, for simple one-to-one binding. Lower therefore signals tighter binding.

Numbering of substitutions follows the chain as printed.

Test [1] deals with Human FcRn (extracellular domain) (human, UniProt P55899 24-297). The test can be described thus: SPR (ProteOn XPR36), antibody immobilised, steady state, pH 6.0. The procedure:
(§1) Experiments were performed using the ProteOn XPR36 surface plasmon resonance system (Bio Rad). Phosphate buffered saline with 0.005% Tween 20 (PBS/Tween), pH 7.4 was used as running buffer for most experiments with the exception of Human FcRn (extracellular domain) binding in which Phosphate buffered saline with 0.005% Tween 20 (PBS/Tween), pH 6.0 was used. All experiments were performed at 25° C. Antibodies were immobilized on a ProteOn™ GLC Sensor Chip (#176-5011) using EDAC (1-Ethyl-3-[3-dimethylaminopropyl]carbodiimide) and sulfo-NHS (N-hydroxysulfosuccinimide) to an R.U. (response unit) level of 4000-6000. C1q, FcγRI, FcγRIIa, FcγRIIb, FcγRIII(158V), FcγRIII(158F), and FcRn were then flowed over the IgG immobilized surface at various concentrations at a rate of 25 μl/minute for a long enough period of time to achieve steady state, or near steady state. Binding (if any could be determined) was quantified via steady state equilibrium binding analysis using the ProteOn software. Human FcγRI, FcγRIIa, FcγRIIb, FcγRIII(158V), FcγRIII(158F), and FcRn extracellular domains were generated via mammalian expression vectors in house. Human C1q was obtained from Quidel (CA).

Test [2] has as its target T1, Human FcγRIIIa (158V) extracellular domain (human, UniProt P08637 17-208).
T1 construct: extracellular domain; Position 158 is the usual allotype numbering (mature protein), not the precursor numbering of the database entry; also called FcγRIII(158V)
The test can be described thus: SPR (ProteOn XPR36), antibody immobilised, steady state, pH 7.4. The procedure: as §1

In test [3] the target is T2, Human FcγRIIIa (158F) extracellular domain (human, UniProt P08637 17-208).
T2 construct: extracellular domain; also called FcγRIII(158F)
T2 sequence (P08637 17-208): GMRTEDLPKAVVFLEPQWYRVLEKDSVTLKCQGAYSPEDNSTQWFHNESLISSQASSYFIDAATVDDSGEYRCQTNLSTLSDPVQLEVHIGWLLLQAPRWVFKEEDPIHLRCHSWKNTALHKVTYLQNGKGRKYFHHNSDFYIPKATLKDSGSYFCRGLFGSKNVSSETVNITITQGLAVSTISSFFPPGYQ
Described as above. The procedure: as §1

Test [4] deals with T3, Human FcγRIIa extracellular domain (human, UniProt P12318 34-217).
T3 construct: extracellular domain
T3 sequence (looked up): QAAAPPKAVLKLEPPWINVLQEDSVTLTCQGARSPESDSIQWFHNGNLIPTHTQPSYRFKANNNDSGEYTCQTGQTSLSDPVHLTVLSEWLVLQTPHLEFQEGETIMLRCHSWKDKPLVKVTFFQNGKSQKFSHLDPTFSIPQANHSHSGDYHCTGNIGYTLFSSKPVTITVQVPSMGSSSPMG
The test is described as above. On the procedure:
as §1

Test [5] concerns the target T4, Human FcγRIIb extracellular domain (human, UniProt P31994 43-217).
T4 construct: extracellular domain
T4 sequence (looked up): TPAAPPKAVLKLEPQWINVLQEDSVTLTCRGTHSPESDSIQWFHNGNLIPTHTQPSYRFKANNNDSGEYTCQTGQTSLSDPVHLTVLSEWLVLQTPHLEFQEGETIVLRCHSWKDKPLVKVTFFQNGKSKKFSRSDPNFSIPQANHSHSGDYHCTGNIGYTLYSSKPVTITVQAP
The test is described as above. On the procedure:
as §1

In test [6] the target is T5, Human FcγRIa extracellular domain (human, UniProt P12314 16-292).
T5 construct: extracellular domain
T5 sequence (P12314 16-292): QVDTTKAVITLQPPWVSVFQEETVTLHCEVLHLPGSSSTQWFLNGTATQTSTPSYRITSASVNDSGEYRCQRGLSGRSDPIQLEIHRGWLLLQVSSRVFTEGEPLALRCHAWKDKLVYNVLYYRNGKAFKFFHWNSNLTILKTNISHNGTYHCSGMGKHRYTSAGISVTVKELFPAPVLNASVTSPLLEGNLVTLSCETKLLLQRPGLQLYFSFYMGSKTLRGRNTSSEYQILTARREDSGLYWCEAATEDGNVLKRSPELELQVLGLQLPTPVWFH
The description is as above. The procedure:
as §1

In the next test the target is T6, Human C1q (human, UniProt P02745 23-245; P02746 28-253; P02747 29-245).
T6 construct: Bought complement protein; In the CDC assay C1q came with human serum
T6 sequence (P02745 23-245 limits assumed, chain 1 of 3): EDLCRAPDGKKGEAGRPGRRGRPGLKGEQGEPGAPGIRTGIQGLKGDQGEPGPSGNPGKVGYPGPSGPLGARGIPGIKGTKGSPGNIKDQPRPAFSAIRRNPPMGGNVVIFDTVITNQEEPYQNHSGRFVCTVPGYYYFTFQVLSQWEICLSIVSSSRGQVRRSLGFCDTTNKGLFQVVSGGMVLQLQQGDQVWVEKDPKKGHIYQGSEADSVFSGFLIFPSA
T6 sequence (P02746 28-253 limits assumed, chain 2 of 3): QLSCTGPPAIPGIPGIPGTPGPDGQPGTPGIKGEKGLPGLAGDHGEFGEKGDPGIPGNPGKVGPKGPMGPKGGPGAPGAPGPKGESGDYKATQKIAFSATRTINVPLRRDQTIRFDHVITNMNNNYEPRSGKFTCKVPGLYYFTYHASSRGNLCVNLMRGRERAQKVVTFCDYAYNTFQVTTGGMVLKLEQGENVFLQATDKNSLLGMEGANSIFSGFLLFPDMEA
T6 sequence (P02747 29-245 limits assumed, chain 3 of 3): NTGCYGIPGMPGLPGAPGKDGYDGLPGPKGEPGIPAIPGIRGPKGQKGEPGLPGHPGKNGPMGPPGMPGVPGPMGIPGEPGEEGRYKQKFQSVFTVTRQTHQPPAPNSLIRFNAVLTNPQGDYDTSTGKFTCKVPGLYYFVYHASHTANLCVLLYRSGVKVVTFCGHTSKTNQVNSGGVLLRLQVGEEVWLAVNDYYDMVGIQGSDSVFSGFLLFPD
Described as above. On the procedure:
as §1

T1 sequence (P08637 17-208 F176V): as the sequence (P08637 17-208) above, with F160V counted along it
Human FcRn (extracellular domain), sequence (P55899 24-297): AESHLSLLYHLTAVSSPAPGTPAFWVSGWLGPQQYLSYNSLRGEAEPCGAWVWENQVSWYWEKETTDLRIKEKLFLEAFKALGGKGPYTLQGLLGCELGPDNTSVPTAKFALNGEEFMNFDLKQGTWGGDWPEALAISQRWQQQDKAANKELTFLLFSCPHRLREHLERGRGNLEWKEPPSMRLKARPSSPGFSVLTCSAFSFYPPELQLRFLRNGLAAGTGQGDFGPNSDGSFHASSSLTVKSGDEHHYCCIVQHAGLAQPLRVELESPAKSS

B1: Ab3 (anti-CD20 antibody HB20.3) with wild-type IgG1 Fc domain (antibody)
heavy: not shown
light: DIQMTQSPASLSASVGETVTITCRASGNIHNYLAWYQQKQGKSPQLLVYNAKTLADGVPSRFSGSGSGTQFSLKINSLQPEDFGSYYCQHFWSTPWTFGGGTKLEIKRTVAAPSVFIFPPSDEQLKSGTASVVCLLNNFYPREAKVQWKVDNALQSGNSQESVTEQDSKDSTYSLSSTLTLSKADYEKHKVYACEVTHQGLSSPVTKSFNRGEC
notes: Full human IgG1 kappa antibody; also called Ab3 WT; WT
With B1, the Kd worked out at 670 nM in test [1]; 900 nM in test [2]; 4700 nM in test [3]; 1200 nM in test [4]; 6000 nM in test [5]; 78 nM in test [6]. For the same molecule, the Kd with Human C1q was found to be 103 nM.

B2: Ab3 (anti-CD20 antibody HB20.3) with FQG-YTE variant IgG1 Fc domain (antibody)
heavy: QVQLQQPGAELVKPGASVKMSCKASGFTFTNYNMHWLKQTPGQGLEWIGAIYPENGDTSYNQKFKGKATLTADKASSTAYMHLSSLTSEDSAVYFCARFYYYGSYYGAMDYWGQGTSVTVSSASTKGPSVFPLAPSSKSTSGGTAALGCLVKDYFPEPVTVSWNSGALTSGVHTFPAVLQSSGLYSLSSVVTVPSSSLGTQTYICNVNHKPSNTKVDKRVEPKSCDKTHTCPPCPAPEFQGGPSVFLFPPKPKDTLYITREPEVTCVVVDVSHEDPEVKFNWYVDGVEVHNAKTKPREEQYNSTYRVVSVLTVLHQDWLNGKEYKCKVSNKALPAGIEKTISKAKGQPREPQVYTLPPSREEMTKNQVSLTCLVKGFYPSDIAVEWESNGQPENNYKTTPPVLDSDGSFFLYSKLTVDKSRWQQGNVFSCSVMHEALHNHYTQKSLSLSPGK
light: B1 light
notes: Full IgG1; also called Ab3 FQG-YTE; YTE-FQG
Take B2: the binding result (in test [2]; in test [3]; in test [4]; in test [5]; in test [6]; in the test with Human C1q) was “no binding” throughout.

B3: Ab3 (anti-CD20 antibody HB20.3) with FE-YTE variant IgG1 Fc domain (antibody)
heavy: B2 heavy with Q240E, G336P
light: B1 light
notes: Full IgG1; also called Ab3 FE-YTE; YTE-FE
In the test with Human C1q, B3 came in with a Kd of 360 nM. That is a sub-micromolar value.

B4: Ab3 (anti-CD20 antibody HB20.3) with FQQ-YTE variant IgG1 Fc domain (antibody)
heavy: B2 heavy with K327Q, G336P
light: B1 light
notes: Full IgG1; also called Ab3 FQQ-YTE; YTE-FQQ
B4: the binding result (in test [2]; in test [3]; in test [4]; in test [5]; in test [6]; with Human C1q) was “no binding” each time.

B5: Ab3 (anti-CD20 antibody HB20.3) with FAQ-YTE variant IgG1 Fc domain (antibody)
heavy: B2 heavy with Q240A, K327Q, G336P
light: B1 light
notes: Full IgG1; also called Ab3 FAQ-YTE; YTE-FAQ
As to B5, the binding result (in test [2]; in test [3]; in test [4]; in test [5]; in test [6]; in the test with Human C1q) was “no binding” in each case.

B6: Ab4 (anti-C5a antibody 1B8) with FAQ-YTE variant IgG1 Fc domain (antibody)
heavy: EVQLLESGGGLVQPGGSLRLSCAASGFTFSSYVMNWVRQAPGKGLEWVSSISPSGGRTWYADSVKGRFTISRDNSKNTLYLQMNSLRAEDTAVYYCARSDGSAAGFLGYWGQGTLVTVSSASTKGPSVFPLAPSSKSTSGGTAALGCLVKDYFPEPVTVSWNSGALTSGVHTFPAVLQSSGLYSLSSVVTVPSSSLGTQTYICNVNHKPSNTKVDKRVEPKSCDKTHTCPPCPAPEFAGGPSVFLFPPKPKDTLYITREPEVTCVVVDVSHEDPEVKFNWYVDGVEVHNAKTKPREEQYNSTYRVVSVLTVLHQDWLNGKEYKCQVSNKALPAPIEKTISKAKGQPREPQVYTLPPSREEMTKNQVSLTCLVKGFYPSDIAVEWESNGQPENNYKTTPPVLDSDGSFFLYSKLTVDKSRWQQGNVFSCSVMHEALHNHYTQKSLSLSPGK
light: QSALTQPPSASGTPGQRVTISCSGTNSNIGSNYVFWYQQLPGTAPKLLIFESNRRPSGVPDRFSGSKSDTSASLAISGLRSEDEADYYCATWDDTLIAPVFGSGTKVTVLGQPKANPTVTLFPPSSEELQANKATLVCLISDFYPGAVTVAWKADSSPVKAGVETTTPSKQSNNKYAASSYLSLTPEQWKSHRSYSCQVTHEGSTVEKTVAPAEC
notes: Full IgG1; also called Ab4 FAQ-YTE
With B6, the binding result (in test [2]; in test [3]; in test [4]; in test [5]; in test [6]; in the test with Human C1q) was “no binding” in each case.

B7: Ab4 (anti-C5a antibody 1B8) with FE-YTE variant IgG1 Fc domain (antibody)
heavy: B6 heavy with A238E, Q325K
light: B6 light
notes: Full IgG1; also called Ab4 FE-YTE
For B7, in the test with Human C1q, the binding result is “binds”.

B8: Ab4 (anti-C5a antibody 1B8) with FES-YTE variant IgG1 Fc domain (antibody)
heavy: B6 heavy with A238E, Q325K, P334S
light: B6 light
notes: Full IgG1; also called Ab4 FES-YTE
In the case of B8, in test [1], the affinity, expressed as Kd, was 270 nM.
